In patent publication US20210275657A1 (BIONTECH US, published 2021):

Tests used:
HLA-A24:02 [1] = target: T1, HLA-A24:02 (human); assay: peptide-HLA stability, Example 9
T1 construct: Construct not described

HLA-A24:02 [2] = target: T1, HLA-A24:02; assay: peptide-HLA affinity, Example 9
HLA-A02:01 [3] = target: T2, HLA-A02:01 (human); assay: competition vs radiolabeled peptide on purified HLA; measured IC50
T2 construct: Stability assay: E. coli-expressed biotinylated heavy chain with 125I-labelled b2m

HLA-A02:01 [4] = target: T2, HLA-A02:01; assay: peptide-HLA stability, Example 9
HLA-A02:01 [5] = target: T2, HLA-A02:01; assay: pMHC-I dissociation, 125I-b2m, 37C; experiment 2
HLA-A02:01 [6] = target: T2, HLA-A02:01; assay: competition vs radiolabeled peptide on purified HLA; IC50 corrected for peptide concentration
HLA-A02:01 [7] = target: T2, HLA-A02:01; assay: pMHC-I dissociation, 125I-b2m, 37C; average of 2
HLA-A02:01 [8] = target: T2, HLA-A02:01; assay: pMHC-I dissociation, 125I-b2m, 37C; experiment 1
HLA-A02:01 [9] = target: T2, HLA-A02:01; assay: peptide-HLA affinity, Example 9
HLA-B08:01 [10] = target: T3, HLA-B08:01 (human); assay: peptide-HLA stability, Example 9
T3 construct: Stability assay: E. coli-expressed biotinylated heavy chain with 125I-labelled b2m; MS: BAP-tagged HLA in HEK293T cells; Treated as one molecule

HLA-B08:01 [11] = target: T3, HLA-B08:01; assay: pMHC-I dissociation, 125I-b2m, 37C; experiment 2
HLA-B08:01 [12] = target: T3, HLA-B08:01; assay: pMHC-I dissociation, 125I-b2m, 37C; average of 2
HLA-B08:01 [13] = target: T3, HLA-B08:01; assay: pMHC-I dissociation, 125I-b2m, 37C; experiment 1
HLA-A11:01 [14] = target: T4, HLA-A11:01 (human); assay: peptide-HLA affinity, Example 36
T4 construct: Construct not described

HLA-A03:01 [15] = target: T5, HLA-A03:01 (human); assay: peptide-HLA affinity, Example 36
T5 construct: Construct not described

HLA-A01:01 [16] = target: T6, HLA-A01:01 (human); assay: peptide-HLA affinity, Example 36
T6 construct: Construct not described

HLA-A03:01 [17] = target: T5, HLA-A03:01; assay: peptide-HLA stability, Example 36
HLA-A01:01 [18] = target: T6, HLA-A01:01; assay: peptide-HLA stability, Example 36
HLA-B07:02 [19] = target: T7, HLA-B07:02 (human); assay: peptide-HLA stability, Example 9
T7 construct: Stability assay: E. coli-expressed biotinylated heavy chain with 125I-labelled b2m; MS: BAP-tagged HLA in HEK293T cells; Treated as one molecule

HLA-B07:02 [20] = target: T7, HLA-B07:02; assay: peptide-HLA affinity, Example 9
HLA-B07:02 [21] = target: T7, HLA-B07:02; assay: competition vs radiolabeled peptide on purified HLA; measured IC50
HLA-B07:02 [22] = target: T7, HLA-B07:02; assay: pMHC-I dissociation, 125I-b2m, 37C; experiment 2
HLA-B07:02 [23] = target: T7, HLA-B07:02; assay: competition vs radiolabeled peptide on purified HLA; IC50 corrected for peptide concentration
HLA-B07:02 [24] = target: T7, HLA-B07:02; assay: pMHC-I dissociation, 125I-b2m, 37C; average of 2
HLA-B07:02 [25] = target: T7, HLA-B07:02; assay: pMHC-I dissociation, 125I-b2m, 37C; experiment 1
HLA-A24:02 [26] = target: T1, HLA-A24:02; assay: peptide-HLA affinity, Example 36
HLA-A24:02 [27] = target: T1, HLA-A24:02; assay: peptide-HLA stability, Example 36
HLA-A11:01 [28] = target: T4, HLA-A11:01; assay: peptide-HLA stability, Example 9
HLA-A03:01 [29] = target: T5, HLA-A03:01; assay: peptide-HLA stability, Example 9
HLA-A11:01 [30] = target: T4, HLA-A11:01; assay: peptide-HLA affinity, Example 9
HLA-A03:01 [31] = target: T5, HLA-A03:01; assay: peptide-HLA affinity, Example 9
HLA-B08:01 [32] = target: T3, HLA-B08:01; assay: competition vs radiolabeled peptide on purified HLA; measured IC50

Binder: MFLKAESKI
- Observed MHC stability (HLA-A24:02 [1]): 0.2 h
- Observed MHC affinity (HLA-A24:02 [2]): 332 nM

Binder: TLQRSSLWCL
- IC50 (HLA-A02:01 [3]): 281 nM
- Observed MHC stability (HLA-A02:01 [4]): 0.5 h
- half-life (HLA-A02:01 [5]): 0.5 h
- IC50 (HLA-A02:01 [6]): 118 nM
- half-life (HLA-A02:01 [7]): 0.5 h
- half-life (HLA-A02:01 [8]): 0.5 h
- Observed MHC affinity (HLA-A02:01 [9]): 118 nM

Binder: FLKAESKIM
- Observed MHC stability (HLA-B08:01 [10]): 1.2 h
- half-life (HLA-B08:01 [11]): 1.5 h
- half-life (HLA-B08:01 [12]): 1.2 h
- half-life (HLA-B08:01 [13]): 0.8 h

Binder: YMANGSLLNY (also called BTK C481S mutant peptide)
- Affinity (HLA-A11:01 [14]): 974 nM
- Affinity (HLA-A03:01 [15]): 95.9 nM
- Affinity (HLA-A01:01 [16]): 13.2 nM
- Stability (1/2 hr) (HLA-A03:01 [17]): 0.279 h
- Stability (1/2 hr) (HLA-A01:01 [18]): 0.866 h

Binder: QPVLWTTPPL
- Observed MHC stability (HLA-B07:02 [19]): 1.4 h
- Observed MHC affinity (HLA-B07:02 [20]): 109 nM

Binder: KPKRDGYMF
- IC50 (HLA-B07:02 [21]): 28.2 nM
- Observed MHC stability (HLA-B07:02 [19]): 8.6 h
- half-life (HLA-B07:02 [22]): 9 h
- IC50 (HLA-B07:02 [23]): 28.2 nM
- half-life (HLA-B07:02 [24]): 8.6 h
- half-life (HLA-B07:02 [25]): 8.3 h
- Observed MHC affinity (HLA-B07:02 [20]): 28 nM

Binder: EPHLALQPL
- Observed MHC stability (HLA-B08:01 [10]): 0 h
- Observed MHC stability (HLA-B07:02 [19]): 7.2 h

Binder: KPKRDGYMFL
- IC50 (HLA-B07:02 [21]): 115 nM
- Observed MHC stability (HLA-B07:02 [19]): 3.3 h
- half-life (HLA-B07:02 [22]): 3.3 h
- IC50 (HLA-B07:02 [23]): 98.1 nM
- half-life (HLA-B07:02 [24]): 3.3 h
- half-life (HLA-B07:02 [25]): 3.3 h
- Observed MHC affinity (HLA-B07:02 [20]): 98 nM

Binder: EYMANGSLL (also called BTK C481S mutant peptide)
- Affinity (HLA-A24:02 [26]): 4.96 nM
- Stability (1/2 hr) (HLA-A24:02 [27]): 5.72 h

Binder: VLWTTPPLQH
- Observed MHC stability (HLA-A11:01 [28]): 0 h
- Observed MHC stability (HLA-A03:01 [29]): 0.3 h
- Observed MHC affinity (HLA-A11:01 [30]): 4540 nM
- Observed MHC affinity (HLA-A03:01 [31]): 16 nM

Binder: FLKAESKIMF
- IC50 (HLA-B08:01 [32]): 90 nM
- Observed MHC stability (HLA-B08:01 [10]): 0 h
- half-life (HLA-B08:01 [11]): 0 h
- half-life (HLA-B08:01 [12]): 0 h
- half-life (HLA-B08:01 [13]): 0 h

Binder: ESKIMFATL
- IC50 (HLA-B08:01 [32]): 23.3 nM
- Observed MHC stability (HLA-B08:01 [10]): 1.3 h
- half-life (HLA-B08:01 [11]): 1.6 h
- half-life (HLA-B08:01 [12]): 1.3 h
- half-life (HLA-B08:01 [13]): 1 h

Binder: YMFLKAESK
- Observed MHC stability (HLA-A11:01 [28]): 0 h
- Observed MHC stability (HLA-A03:01 [29]): 0.3 h
- Observed MHC affinity (HLA-A11:01 [30]): 1730 nM
- Observed MHC affinity (HLA-A03:01 [31]): 80 nM

Binder: MFATLQRSSL
- IC50 (HLA-B07:02 [21]): 350 nM
- Observed MHC stability (HLA-B08:01 [10]): 0 h
- Observed MHC stability (HLA-B07:02 [19]): 0 h
- half-life (HLA-B08:01 [11]): 0 h
- half-life (HLA-B07:02 [22]): 0 h
- IC50 (HLA-B07:02 [23]): 267 nM
- half-life (HLA-B08:01 [12]): 0 h
- half-life (HLA-B07:02 [24]): 0 h
- half-life (HLA-B08:01 [13]): 0 h
- half-life (HLA-B07:02 [25]): 0 h

Binder: KIMFATLQR
- Observed MHC stability (HLA-A11:01 [28]): 8.9 h
- Observed MHC stability (HLA-A03:01 [29]): 5.6 h
- Observed MHC affinity (HLA-A11:01 [30]): 23 nM
- Observed MHC affinity (HLA-A03:01 [31]): 3 nM

Binder: LHFCRSSIM
- IC50 (HLA-B08:01 [32]): 167 nM
- Observed MHC stability (HLA-B08:01 [10]): 0 h
- half-life (HLA-B08:01 [11]): 0 h
- half-life (HLA-B08:01 [12]): 0 h
- half-life (HLA-B08:01 [13]): 0 h

Binder: VLPEPHLAL
- Observed MHC stability (HLA-A02:01 [4]): 1.1 h
- Observed MHC affinity (HLA-A02:01 [9]): 16 nM

Binder: MANGSLLNY (also called BTK C481S mutant peptide)
- Affinity (HLA-A11:01 [14]): 536 nM
- Affinity (HLA-A03:01 [15]): 35.6 nM
- Affinity (HLA-A01:01 [16]): 439 nM
- Stability (1/2 hr) (HLA-A03:01 [17]): 0.238 h
- Stability (1/2 hr) (HLA-A01:01 [18]): 0.216 h

Binder: IMKPKRDGYM
- IC50 (HLA-B08:01 [32]): 40.2 nM
- Observed MHC stability (HLA-B08:01 [10]): 0.4 h
- half-life (HLA-B08:01 [11]): 0.4 h
- half-life (HLA-B08:01 [12]): 0.4 h
- half-life (HLA-B08:01 [13]): 0.4 h

Binder: GPPARVPAV
- IC50 (HLA-B07:02 [21]): 282 nM
- Observed MHC stability (HLA-B07:02 [19]): 1.6 h
- half-life (HLA-B07:02 [22]): 1.8 h
- IC50 (HLA-B07:02 [23]): 221 nM
- half-life (HLA-B07:02 [24]): 1.6 h
- half-life (HLA-B07:02 [25]): 1.5 h
- Observed MHC affinity (HLA-B07:02 [20]): 221 nM

Binder: AIQPVLWTT
- Observed MHC stability (HLA-A02:01 [4]): 1.5 h
- Observed MHC affinity (HLA-A02:01 [9]): 8 nM

Binder: FATLQRSSL
- IC50 (HLA-B08:01 [32]): 27.5 nM
- IC50 (HLA-B07:02 [21]): 14 nM
- Observed MHC stability (HLA-B08:01 [10]): 0 h
- Observed MHC stability (HLA-B07:02 [19]): 0.7 h
- half-life (HLA-B08:01 [11]): 0 h
- half-life (HLA-B07:02 [22]): 0.6 h
- IC50 (HLA-B07:02 [23]): 14 nM
- half-life (HLA-B08:01 [12]): 0 h
- half-life (HLA-B07:02 [24]): 0.7 h
- half-life (HLA-B08:01 [13]): 0 h
- half-life (HLA-B07:02 [25]): 0.7 h
- Observed MHC affinity (HLA-B07:02 [20]): 14 nM
